Bounds are passed on as bounds.

We go through one substance from patent US20230029307A1.

This assay addresses rhVEGF165 (R&D Systems, Cat #293-VE-010) (human) (UniProt P15692). Nature of the assay: cell-based or functional assay.

Chain of rhVEGF165 (R&D Systems, Cat #293-VE-010) (human) (P15692 other isoform, or with tags, fused parts or gaps limits assumed): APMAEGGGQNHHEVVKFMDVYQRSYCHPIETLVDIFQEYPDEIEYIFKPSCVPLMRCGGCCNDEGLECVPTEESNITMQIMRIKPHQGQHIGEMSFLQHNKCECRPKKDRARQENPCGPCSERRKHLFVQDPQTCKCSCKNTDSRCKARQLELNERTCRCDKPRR

Substance “Aflibercept (EYLEA) (from UniProt P17948 129-230; P35968 225-327) (Fc fusion)” came in with a maximal % inhibition of VEGF-stimulated BCEC proliferation of less than 80%.
